Measurements reported in article PMC6001950.

Molecular target: human S100A9 protein (human) (UniProt P06702)
Experiment: other fluorescence titration; intrinsic tryptophan fluorescence of 2 uM S100A9; S100A12 added at 0.4-7 uM; excitation 295 nm, emission read at 345 nm; one binding site model

B1: human S100A12 protein (natural protein)
chain: MTKLEEHLEGIVNIFHQYSVRKGHFDTLSKGELKQLLTKELANTIKNIKDKAVIDEIFQGLDANQDEQVDFQEFISLVAIALKAAHYHTHKE
In the case of B1, the Kd is reported as 1300 nM.
